Read-outs that look alike come from different tables or passages of the source. Bridge positions count the residues as written; N and C are the ends. Ends that are not written are not given here. * marks the point of attachment. 5FAM = O=C1OC2(c3ccc(O)cc3Oc3cc(O)ccc32)c2ccc(C(=O)*)cc21
What was measured:
[1] = biological target: T1, PCSK9 (proprotein convertase subtilisin/kexin type 9), His-tagged, full-length (human, UniProt Q8NBP7 31-692); test: TR-FRET competition; competitor EGF(A)-Fc binding to His-PCSK9
T1 construct: Captured by the His tag (SPR Methods 1 and 2), amine-coupled (Method 3), or His-tagged in TR-FRET; also called His-PCSK9

PCSK9Δhelix [2] = biological target: T2, PCSK9Δhelix (human, UniProt Q8NBP7 31-152; Q8NBP7 168-692); test: TR-FRET competition; competitor Ab20 binding to His-PCSK9Δhelix
T2 construct: Made by TEV cleavage of human PCSK9 M1-Q692 with an engineered TEV site; The new N-terminus of the catalytic domain is S-A168; also called His-PCSK9Δhelix; PCSK9 lacking the P' helix

PCSK9Δhelix [3] = biological target: T2, PCSK9Δhelix; test: as above; remark: listed apart in the source
[4] = biological target: T1, PCSK9 (proprotein convertase …); test: SPR, Method 3 (SensiQ Pioneer FE, target amine-coupled, gradient injection)
PCSK9Δhelix [5] = biological target: T2, PCSK9Δhelix; test: as above
[6] = biological target: T1, PCSK9 (proprotein convertase …); test: TR-FRET competition; competitor EGF(A)-Fc binding to His-PCSK9; remark: listed apart in the source
PCSK9Δhelix [7] = biological target: T3, PCSK9Δhelix (human, Chemically biotinylated in the phage ELISAs; the site is not given.); test: phage spot ELISA
T3 construct: construct M1-Q692 with engineered TEV site, cleaved by TEV; also called His-PCSK9Δhelix; open groove PCSK9Δhelix

[8] = biological target: T4, proprotein convertase subtilisin/kexin type 9 (PCSK9) (human, UniProt Q8NBP7 31-692); test: phage spot ELISA
T4 construct: His-tagged full-length PCSK9 in TR-FRET and SPR, biotinylated in phage ELISA; secreted protein is autoprocessed (prodomain plus catalytic/CRD chain starting at S153); also called rec.PCSK9; His-PCSK9

[9] = biological target: T1, PCSK9 (proprotein convertase …); test: TR-FRET competition; competitor EGF(A)-Fc binding to His-PCSK9; remark: listed apart in the source
PCSK9Δhelix [10] = biological target: T2, PCSK9Δhelix; test: TR-FRET competition; competitor Ab20 binding to His-PCSK9Δhelix; remark: listed apart in the source
[11] = biological target: T5, PCSK9Δhelix (human PCSK9 lacking the P' helix, His-tagged) (human, UniProt Q8NBP7 31-152; Q8NBP7 168-692); test: TR-FRET competition; His-PCSK9Δhelix with Ab20 as competitor ligand
T5 construct: Construct M1-Q692 with an engineered TEV site (Y166 and R167 deleted, ENLYFQS inserted between R165 and A168); also called His-PCSK9Δhelix; C-terminal (His)8-tagged PCSK9Δhelix

[12] = biological target: T5, PCSK9Δhelix (human PCSK9 lacking the P' …); test: SPR (Biacore), His-tagged PCSK9Δhelix captured on NTA chip

T2 sequence (Q8NBP7 31-152, stated change not applied, chain 1 of 2): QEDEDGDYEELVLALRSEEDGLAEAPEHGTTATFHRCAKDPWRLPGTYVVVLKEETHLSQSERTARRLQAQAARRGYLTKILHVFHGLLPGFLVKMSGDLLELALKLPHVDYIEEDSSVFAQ
T2 sequence (Q8NBP7 other isoform, or with tags, fused parts or gaps mutant, chain 2 of 2): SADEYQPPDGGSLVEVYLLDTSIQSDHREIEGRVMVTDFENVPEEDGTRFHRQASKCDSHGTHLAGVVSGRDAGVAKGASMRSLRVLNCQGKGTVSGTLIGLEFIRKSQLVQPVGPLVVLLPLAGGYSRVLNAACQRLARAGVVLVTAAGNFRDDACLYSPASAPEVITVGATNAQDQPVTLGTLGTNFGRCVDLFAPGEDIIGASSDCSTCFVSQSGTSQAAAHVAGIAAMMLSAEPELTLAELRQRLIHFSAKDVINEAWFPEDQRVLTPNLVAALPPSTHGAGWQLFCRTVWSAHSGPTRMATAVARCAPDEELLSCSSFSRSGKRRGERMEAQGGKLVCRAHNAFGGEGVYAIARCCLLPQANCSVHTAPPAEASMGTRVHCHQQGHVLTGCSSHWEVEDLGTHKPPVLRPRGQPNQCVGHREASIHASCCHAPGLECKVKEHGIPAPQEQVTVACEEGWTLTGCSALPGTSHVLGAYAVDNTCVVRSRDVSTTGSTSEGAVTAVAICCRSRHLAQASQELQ
T3 sequence (prodomain, as listed by the source mutant limits assumed, chain 1 of 2): as the sequence (Q8NBP7 31-152, stated change not applied, chain 1 of 2) above
T3 sequence (chain, as listed by the source mutant limits assumed, chain 2 of 2): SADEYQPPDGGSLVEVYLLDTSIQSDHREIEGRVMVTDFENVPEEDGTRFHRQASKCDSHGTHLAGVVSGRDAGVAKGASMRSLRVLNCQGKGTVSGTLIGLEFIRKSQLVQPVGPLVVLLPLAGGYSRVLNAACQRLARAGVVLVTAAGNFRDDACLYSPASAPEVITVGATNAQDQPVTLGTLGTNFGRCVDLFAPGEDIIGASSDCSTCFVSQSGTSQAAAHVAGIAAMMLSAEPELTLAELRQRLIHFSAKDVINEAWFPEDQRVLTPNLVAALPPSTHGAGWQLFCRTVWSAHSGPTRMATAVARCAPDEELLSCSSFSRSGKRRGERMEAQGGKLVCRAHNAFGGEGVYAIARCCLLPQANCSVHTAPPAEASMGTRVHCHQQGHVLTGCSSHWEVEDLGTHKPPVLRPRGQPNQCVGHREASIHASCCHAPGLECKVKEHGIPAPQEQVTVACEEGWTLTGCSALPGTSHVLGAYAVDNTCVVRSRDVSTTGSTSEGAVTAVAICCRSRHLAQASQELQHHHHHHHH
T1 sequence (Q8NBP7 31-692 limits assumed): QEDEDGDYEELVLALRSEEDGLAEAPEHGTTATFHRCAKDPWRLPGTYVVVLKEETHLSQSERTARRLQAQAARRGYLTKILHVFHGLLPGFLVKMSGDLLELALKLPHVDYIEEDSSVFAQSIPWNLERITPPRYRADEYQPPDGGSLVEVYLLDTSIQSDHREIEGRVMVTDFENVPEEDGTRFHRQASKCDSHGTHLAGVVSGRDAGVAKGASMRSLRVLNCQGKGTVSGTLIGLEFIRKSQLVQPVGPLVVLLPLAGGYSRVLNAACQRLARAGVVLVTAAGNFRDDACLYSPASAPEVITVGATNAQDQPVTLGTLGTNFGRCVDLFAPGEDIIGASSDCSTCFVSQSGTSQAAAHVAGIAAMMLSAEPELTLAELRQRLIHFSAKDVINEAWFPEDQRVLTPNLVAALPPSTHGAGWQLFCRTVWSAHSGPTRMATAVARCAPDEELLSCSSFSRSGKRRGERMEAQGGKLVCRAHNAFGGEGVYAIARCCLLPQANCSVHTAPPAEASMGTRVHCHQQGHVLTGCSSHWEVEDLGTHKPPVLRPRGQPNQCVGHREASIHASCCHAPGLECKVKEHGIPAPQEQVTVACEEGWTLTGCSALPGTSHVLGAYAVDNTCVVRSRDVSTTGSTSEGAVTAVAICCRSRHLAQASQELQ
T4 sequence (Q8NBP7 other isoform, or with tags, fused parts or gaps limits assumed): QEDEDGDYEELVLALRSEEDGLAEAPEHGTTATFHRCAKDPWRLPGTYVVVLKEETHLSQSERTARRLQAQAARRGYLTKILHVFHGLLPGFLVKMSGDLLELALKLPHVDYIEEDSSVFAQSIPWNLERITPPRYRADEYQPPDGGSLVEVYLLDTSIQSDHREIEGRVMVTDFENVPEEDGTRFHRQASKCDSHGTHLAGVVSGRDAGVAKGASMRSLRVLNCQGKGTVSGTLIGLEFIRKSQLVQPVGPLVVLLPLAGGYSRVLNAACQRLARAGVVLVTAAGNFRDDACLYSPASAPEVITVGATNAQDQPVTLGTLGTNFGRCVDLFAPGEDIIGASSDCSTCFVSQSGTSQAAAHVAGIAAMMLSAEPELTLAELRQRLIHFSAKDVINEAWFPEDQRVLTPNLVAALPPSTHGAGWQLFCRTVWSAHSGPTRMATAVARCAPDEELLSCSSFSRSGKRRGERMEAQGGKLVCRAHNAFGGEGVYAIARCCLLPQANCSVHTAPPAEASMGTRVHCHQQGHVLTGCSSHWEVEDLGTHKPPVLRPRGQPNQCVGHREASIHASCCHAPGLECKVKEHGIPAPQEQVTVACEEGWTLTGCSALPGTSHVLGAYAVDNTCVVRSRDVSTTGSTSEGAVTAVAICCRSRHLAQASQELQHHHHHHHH
T5 sequence (Q8NBP7 31-152, stated change not applied, chain 1 of 2): as the sequence (Q8NBP7 31-152, stated change not applied, chain 1 of 2) above
T5 sequence (Q8NBP7 other isoform, or with tags, fused parts or gaps mutant, chain 2 of 2): as the sequence (chain, as listed by the source mutant limits assumed, chain 2 of 2) above

Question: For Ac-TVFTSWEEYLDWVGSGKLWNLG-NH2 [Compound 5], which IC50 [1] is on record?
Answer: Its IC50 is 0.72 µM.

Question: What about the IC50 (PCSK9Δhelix [2]) of the same binder?
Answer: The IC50 was 11.1 µM.

Question: Ac-PWNLVRIGLLR-NH2 [Compound 52] was tested. Which IC50 (PCSK9Δhelix [3]) did it give?
Answer: Its IC50 is 10.2 µM.

Question: And the Kd [4]?
Answer: The Kd was 17.9 µM.

Question: And the Kd (PCSK9Δhelix [5])?
Answer: The Kd was 2.6 µM.

Question: What about the IC50 [6] of the same binder?
Answer: The IC50 was > 50 µM.

Question: With SGCFIPWNLQRIGLLC (not fully specified (C-terminus, bridges); cysteine pairing not given here) [SEQ ID NO 383] as the binder, how does the ELISA (PCSK9Δhelix [7]) read?
Answer: The ELISA was 3.07.

Question: And the s/n ratio (PCSK9Δhelix [7])?
Answer: The s/n ratio was 8.48.

Question: And the ELISA [8]?
Answer: Its ELISA is 3.

Question: And the s/n ratio [8]?
Answer: Its s/n ratio is 8.11.

Question: How did the IC50 [9] turn out when Ac-TVFTSWEEYLDWVGGSGCWNLKRIGSQGC-NH2 (disulfide 18-29 (inferred), Two Cys, disulfide-cyclized) [Compound 13] was run?
Answer: The IC50 was 0.01 µM.

Question: What about the IC50 (PCSK9Δhelix [10]) of the same binder?
Answer: The IC50 was 0.001 µM.

Question: With Ac-TVFTSWEEYLDWVGSGGCWNLKRIGSQGC-NH2 (disulfide 18-29 (inferred), Two Cys, disulfide-cyclized) [Compound 14] as the binder, how does the IC50 [9] read?
Answer: The IC50 was 0.009 µM.

Question: What about the IC50 (PCSK9Δhelix [10]) of the same binder?
Answer: Its IC50 is 0.001 µM.

Question: Which IC50 (PCSK9Δhelix [3]) does the source give for Ac-WNLVRIGLLR-NH2 [Compound 53] here?
Answer: The IC50 was 33.1 µM.

Question: And the Kd [4]?
Answer: Its Kd is 223 µM.

Question: What about the Kd (PCSK9Δhelix [5]) of the same binder?
Answer: Its Kd is 33.8 µM.

Question: And the IC50 [6]?
Answer: Its IC50 is > 50 µM.

Question: Which IC50 [11] does the source give for Ac-DLMPWNLVRIGLLR-NH2 [Compound 35: Ac-DLMPWNLVRIGLLR-NH2] here?
Answer: The IC50 was 7.9 µM.

Question: What about the Kd [12] of the same binder?
Answer: The Kd was 1.38 µM.

Question: SGRCLNHLISGNMNSC [SEQ ID NO 387] was tested. Which ELISA (PCSK9Δhelix [7]) did it give?
Answer: The ELISA was 2.88.

Question: What about the s/n ratio (PCSK9Δhelix [7]) of the same binder?
Answer: The s/n ratio was 20.7.

Question: What about the ELISA [8] of the same binder?
Answer: The ELISA was 2.62.

Question: What about the s/n ratio [8] of the same binder?
Answer: Its s/n ratio is 17.5.

Question: Which results are given for Ac-TVFTSWEEYLDWVGSGKLWN-NH2 [Compound 7]?
Answer: IC50 [1]: 0.5 µM; IC50 (PCSK9Δhelix [2]): 18.6 µM

Question: For 5FAM-SGSGCRLPWNLQRIGLPC-NH2 (disulfide 5-18 (inferred), Two Cys, disulfide-cyclized) [Compound 34], which Kd [4] is on record?
Answer: The Kd was 4.47 µM.

Question: And the Kd (PCSK9Δhelix [5])?
Answer: Its Kd is 5.28 µM.

Question: Which IC50 [1] does the source give for Ac-TVFTSWEEYLDWVGSGKLWNLGR-NH2 [Compound 4] here?
Answer: The IC50 was 0.49 µM.

Question: And the IC50 (PCSK9Δhelix [2])?
Answer: The IC50 was 1.52 µM.

Question: SGDLMPWNLVRIGLLR [SEQ ID NO 389] was tested. Which ELISA (PCSK9Δhelix [7]) did it give?
Answer: Its ELISA is 3.23.

Question: And the s/n ratio (PCSK9Δhelix [7])?
Answer: Its s/n ratio is 14.7.

Question: And the ELISA [8]?
Answer: Its ELISA is 3.16.

Question: What about the s/n ratio [8] of the same binder?
Answer: The s/n ratio was 16.5.

Question: Which IC50 [9] does the source give for Ac-TVFTSWEEYLDWVGSGGCRLPWNLQRIGLPC-NH2 (disulfide 18-31 (inferred), Two Cys, disulfide-cyclized) [Compound 25] here?
Answer: The IC50 was 0.781 µM.

Question: And the IC50 (PCSK9Δhelix [10])?
Answer: The IC50 was 0.083 µM.

Question: What does the source list for Ac-TVFTSWEEYLDWVGSGGCFLPWNLQRIGLLC-NH2 (disulfide 18-31 (inferred), Two Cys, disulfide-cyclized) [Compound 38]?
Answer: IC50 [9]: 0.471 µM; IC50 (PCSK9Δhelix [10]): 0.003 µM

Question: Which results are given for SGACVKPCIAGNIIR [SEQ ID NO 388]?
Answer: ELISA (PCSK9Δhelix [7]): 2.09; s/n ratio (PCSK9Δhelix [7]): 18.2; ELISA [8]: 1.25; s/n ratio [8]: 9.44

Question: With Ac-ALMPWNLVRIGLLR-NH2 [Compound 45] as the binder, how does the IC50 (PCSK9Δhelix [3]) read?
Answer: The IC50 was 2.02 µM.

Question: And the Kd [4]?
Answer: Its Kd is 117 µM.

Question: What about the Kd (PCSK9Δhelix [5]) of the same binder?
Answer: Its Kd is 8.2 µM.

Question: What about the IC50 [6] of the same binder?
Answer: Its IC50 is > 50 µM.

Question: For Ac-DLMPWNLVRIGLAR-NH2 [Compound 55], which IC50 (PCSK9Δhelix [3]) is on record?
Answer: Its IC50 is 9.7 µM.

Question: What about the Kd [4] of the same binder?
Answer: The Kd was 96.5 µM.

Question: What about the Kd (PCSK9Δhelix [5]) of the same binder?
Answer: Its Kd is 2.8 µM.

Question: And the IC50 [6]?
Answer: The IC50 was > 50 µM.

From patent US20200283478A1 (Genentech, published 2020)
